Test: yeast display, Sf9 membrane polyspecificity reagent, FACS + sequencing; frameworks hold sequencing errors
How it was run: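 Sorting gates, low and high (top ~1%), were placed on anti-HA fluorescence to track expression and on streptavidin fluorescence to track reagent binding. A clone's polyreactivity label is taken from the gate it came out of. The reagent was 10% biotinylated, detergent-solubilized Sf9 membrane, applied for 1 hour at 4 °C to galactose-induced yeast display cells.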

Sequence | polyreactivity (PSR sort gate)
QVQLVESGGGLVQAGGSLRLSCDASGRIFTTYAMGWYRQAPGKERELVARITWSAGRTYYADSVKGRFTISRDNAKNTVYLQMNSLKPEDTAVYYCAADGGISAGANSGYDYWGQGTQVTVSS | high polyreactivity
QVQLVESGGGLVQAGGSLRLSCDASGRIFVYYAMGWYRQAPGKERELVAAINSGGTTKYADSVKGRFTISRDNAKNTVYLQMNSLKPEDTAVYYCAAEPLTPSRDRVPYEYYYWGQGTQVTVSS | high polyreactivity
QVQLVESGGGLVQAGGSLRLSCDASGRIFYANAMGWYRQAPGKERELVAGISSGGITNYADSVKGRFTISRDNAKNTVYLQMNSLKPEDTAVYYCAARRWSTGGYGQFDYWGQGTQVTVSS | low polyreactivity
QVQLVESGGGLVQAGGSLRLSCDASGRILTSNAMGWYRQPPGKERELVAAISWSGGSTYYADSVKGRFTISRDNAKNTVYLQMNSLKPEDTAVYYCAAPFTTTFDYWGQGTQVTVSS | low polyreactivity
QVQLVESGGGLVQAGGSLRLSCDASGRISGSYVMGWYRQAPRKERELVAGISGRGGSTYYADSVKGRFTISRDNAKNTVDLQMNSLKPEDTAVYYCAVVDRTSKGNSYYWGQGTQVTVSS | high polyreactivity
QVQLVESGGGLVQAGGSLRLSCDASGRTFGRNAMGWYRQAPGERELGAVISRGGSTYYADSVKGRFTISRDNAKNTVYLQRNSLKPEDTAVYYCNADTVYTRTAPYDYWGQGTQVTVSS | low polyreactivity
QVQLVESGGGLVQAGGSLRLSCDASGRTFPDYAIGWYIQAPGKESELVAAISGSGGSTYYADSVKGRFTISRDNAKNTVYLQMNSLKPEDTAVYYCAAEAETLLWYWFPSAVDYWGQGTQVTVSS | high polyreactivity
QVQLVESGGGLVQAGGSLRLSCDASGRTFQYYAMGWYRQAPGKVRELVAGISSCGGSTYYADSVKGRFTISRDNAKNTVDLQMNSLKPEDTAVYYCNKARYFTGQRYDYWGQGTQVTVSS | high polyreactivity
QVQLVESGGGLVQAGGSLRLSCDASGRTFSSNAMGWYRQAHGKERELVAAISFRGGRTFYADSVKGRFTISRDNAKNTVYLQMNSLKPEDTAVYYCNAVPETRTYDYWGQGTQVTVSS | high polyreactivity
QVQLVESGGGLVQAGGSLRLSCDASGSIFAPNSMGWYRQAPGKERELVAAITSSGCRTYYADSVKGRFTISRDNAMNTFYLQMNSLKPVDSAVYYWIAGFYVRRDYDYWGQGTQVTVSS | low polyreactivity
QVQLVESGGGLVQAGGSLRLSCDASGSIFILYAMGWYRQAPGKERELVAGITLSTGTTSYADSVKGRFTISRDNAKNTVYLQMNSLKPVDTAVYYCNAVPSQHDEFDYWGQGTQVTVSS | low polyreactivity
QVQLVESGGGLVQAGGSLRLSCDASGSIFPHNAMGWYRQAPGKERELVAAISVSGGSKYYADSVKGRFTISRDNAKNTVYLQMNSLKPEDTAVYYCAAYAYGGRINGYRTYRYNYWGQGTQVTVSS | high polyreactivity
QVQLVESGGGLVQAGGSLRLSCDASGSIFPYNAMGWFRQAPGKEWELVAAISKRGGSTYYADSVKGRFTISRDNAKNTVYLQMNSLKPEDSAVYYCAARYPPYRSWYSYDSWGQGTQVTVSS | low polyreactivity
QVQLVESGGGLVQAGGSLRLSCDASGSIFSIYAMGWYRQAPGKERELVAAISSGGSTYYADSVKGRFTISRDNAKNTVYLQMNSLKPEDTAVYYCAADAAYYSGYDYWGQGTQVTVSS | low polyreactivity
QVQLVESGGGLVQAGGSLRLSCDASGSIFTPYAMGWYRQAPGKERELVAAINWNGGRTYYADSVKGRFTISRDNAKNRVYLQMNCLKPEDTAVYYCFLYYWANYPYNYWGQGTQVNVSS | low polyreactivity
QVQLVESGGGLVQAGGSLRLSCDASGSIFYDNAKGWYRQAPGKERELVATIRGGGNTYYADSVKGRFTISRDNAKNTVYLQMNSLKPEDTAVNYCAKQSDFPVVPLVYGVYGYDYWGQGTQVTVSS | low polyreactivity
QVQLVESGGGLVQAGGSLRLSCDASGSIFYGYAMGWYRQAPGKERELVASITGSGGSTSYADSVKGRFTISRDNAKKTVYLQMNSLKPEDTAVYYCNTVLLQLYKLASGFDYWGQGTQVTVSS | high polyreactivity
QVQLVESGGGLVQAGGSLRLSCDASGSIIGFYAMVWYRQAPGKERELVASISSSGDSTYYADSVKGRFTFSRDIAKNTVYLQMNSLIPEDTAVYYCAAVVYDIYGYEFDYWGQGTQLTVSS | low polyreactivity
QVQLVESGGGLVQAGGSLRLSCDASGSILPGYAMGWYRQEPGKEMELVAAISYRGTSTYYADSVKGRFTISRDNAKNTFYLQMNSLKPEDTAVYYCAAGGSWFRYPPSMDYWGQGTQVTVSS | high polyreactivity
QVQLVESGGGLVQAGGSLRLSCDASGSTFGTYAMGWYRQAPGKERELVATITYRGGSTNYADSVKGRFTISRDNAKNTVYLQMISLKPEDTAVYYCAADYFSQLAGIFDYWGLGTQVTVSS | low polyreactivity
QVQLVESGGGLVQAGGSLRLSCDASGSTFRSYAMGWYRQAHGKERELVASISGRGGSTYYADSVKGRFTISRDNAKNTVYLQMNSLKPEDTAVYYCAKRYRVSYYPYADPYGYWGQGTQVTVSS | low polyreactivity
QVQLVESGGGLVQAGGSLRLSCDASGSTFSYYAMGWYRQAPGKERDLVAAISSSGVRTYYADSVKGRFTISRDNAKNTVYLQMNSQKPEDTAVYYCAAGSRRGWLYRNRLWADYDYWGQGTQVTVSS | high polyreactivity

Sequence | polyreactivity (PSR sort gate)
QVQLVESGGGLVQAGGSLRLSCDASGSTFVHYAMGWYRQAPGKERQLVAAISSSGDSTYYADSVKGRFTISRDNAKNTVYLKMNSLKPEDTAVYYCAVRSRTPRAYYYWGQGTQVTVSS | low polyreactivity
QVQLVESGGGLVQAGGSLRLSCDASGSTRIYAMGWYTQAPGKERELVAAISWTGGRTYYADSVKGRFTISRDNAKYTVYLQMNSLKPEDTAVYYCAAKGSGRDYWGQGTLVTVSS | high polyreactivity
QVQLVESGGGLVQAGGSLRLSCDASGSTSYLYAMGCYRQAPGKARELVAAIPWRSVRTSYADSVKGRFTFSRDNAKNTVYLQMNSLKPEDTAVYYCNAVGYTRGRSTYDYWGQGTQVTVSS | high polyreactivity
QVQLVESGGGLVQAGGSLRLSCDASGYTFRRYAMGWYIQAPGKEREMVAAITNSGGSTYYADSVKGRFTISRDNAKNTVYLQMNSLKPEDTAVYYCVALRSAGAYDYWGQGTQVTVSS | low polyreactivity
QVQLVESGGGLVQAGGSLRLSCDASVSIFQPYAMGWYRQAPGKERELVAAISSSGGSTTYADSVKGRFTISRDNAKNTVYLQMKSLKPEDTAVYYCAADSADDMGYWGQGTQVTVSS | low polyreactivity
QVQLVESGGGLVQAGGSLRLSCDCSGRIFKRYDMGWYRQAPGKERELVAAITGTGGSTYYADSVKGRFTISRDNAKNTVYLQMNSLKPEDTAVYYCAARLYNTYSGFAFGYWGQGTQVTVSS | high polyreactivity
QVQLVESGGGLVQAGGSLRLSCDDSGGIFGFYSMGWYRQAPGKERELVAAISGDGGSTYYADSVKGRFTISRDNATNTVYLQMNSLKPEDTAVYYCTAAFFTEYYQGDYWGQGTQVTVSS | low polyreactivity
QVQLVESGGGLVQAGGSLRLSCDDSGSTFVINDMGWYRQAPGKERELVAAITWGSGSTSYADSVKGRCTISRDNAKNTVYGQMISLKPEDTEVYYCAADVYLGLFGYYAEYNDYWGQGTQVTVSS | low polyreactivity
QVQLVESGGGLVQAGGSLRLSCGASGFTFQNYAMGWYRQARGKERELVAAIDSRGGRTYYADSVKGRFTISRDNAKNTVYLQMNSLKPEDTSVYYCAVAENKRCGAVGYYYWGQGTQVTVSS | low polyreactivity
QVQLVESGGGLVQAGGSLRLSCGASGGIFIFYAMGWYRHAPGKERELVAAISNVSSTNYADSVKGRFTISRDNAKHTVYLEMNSLKPEDTAVYYCNAVGVPSEYYSWGQGTQVTVSS | low polyreactivity
QVQLVESGGGLVQAGGSLRLSCGASGGTFVSNAMGWYRQAPGKERELVAAITSGCNTTYADSVKGRFTISRDNAKNTVYLQMNSLKPEDTAVYYCATDFEGSWIDARGTWYYVWFGYWGQGTQVTVSS | low polyreactivity
QVQLVESGGGLVQAGGSLRLSCGASGRIFATNAMGWYRQAPGKERELVATITRSAGRTYYADSVKGRFTISRDNAKNTVYLQMNSLIPEDTAVYYCAASYLDSEPGYREYDYWGQGTQVTVSS | low polyreactivity
QVQLVESGGGLVQAGGSLRLSCGASGRIFGYNAMGWYRQARGKERELVAAITTSGGSTYYADSVKGRFTLSRDNEKNTVYFQMNSLKQEDTAVYYCARDSLQVFYPYASDDYWGLGTQVTVSS | low polyreactivity
QVQLVESGGGLVQAGGSLRLSCGASGRTFGHYDLGLYRQEPGTEREFVANIRQSTGSTDYADSVKGRFTISRDNAKITVYLQMNSLKPEDTEVYYCASPWYYYVEHRQGSYILDYWGQGTQVTVSS | low polyreactivity
QVQLVESGGGLVQAGGSLRLSCGASGRTFRKYAMGWYRQAPGKERELVASITYSGGSTYYADSVKGRFTISRDNAKNTVYLQMNSLKPEDTAVYYCAARLHWNRYPQTLYDYWGLGTQVTVSS | high polyreactivity
QVQLVESGGGLVQAGGSLRLSCGASGRTFRRYAIGWYRQAPGKERELVATITSNGGSTYYADSVKGRFTISRDNAKNTVDLQLNSLTPEDTAVYYCARDLTYYRSRYDYWGQGTQVTVSS | high polyreactivity
QVQLVESGGGLVQAGGSLRLSCGASGRTFYSYAMGWYRQEHGKERELVATITNGDTTNYADSVKGRFTISRDNAKNTVYLQMNSLKQEDTAVYYCAKDISPGYDEYDYWGQGTQVTVSS | low polyreactivity
QVQLVESGGGLVQAGGSLRLSCGASGSIFRYYTMGWYRQAPGKERELVAAISRSGGSTYYADSVKGRFTISRDNAKNTVYLQMNRLKPEDTAVYYCAARSGYIYEYWGQGTQVTVSS | high polyreactivity
QVQLVESGGGLVQAGGSLRLSCGASGSTFIYYVMGWYRQAPGKEREWVASISTGGRTYYADSVKGRFTSSRDNANHPVYVQMHSLKPEETAVDSCAGAIRSFRRPALYYWGQGTQVTVSS | high polyreactivity
QVQLVESGGGLVQAGGSLRLSCGASGSTFWYYAMGWYRPAPGKERELVAAISSRGGSTYYADSVKGRFTISRDKAKNTVYFQLNSLKPEDTAVYYCAILGSYGGGQRRKYDSWGQGTQVTVSS | high polyreactivity
QVQLVESGGGLVQAGGSLRLSCPACGRTFNRYAMGWYRQAPGKERELVATISNSGRTYYADSVKGRFTISRDNAKNTVYLQMNSLKPEDTAVYYCAAQLPSYYKYPRHDYWGKGTQVTVSS | high polyreactivity

From the nanobody polyreactivity screen of Harvey et al. (2022)
